This is an account of results in patent publication US20250249113A1, “LIGAND-DRUG-CONJUGATES WITH IMPROVED PHARMACOKINETIC AND DRUG RELEASE PROPERTIES” (Debiopharm Research & Manufacturing S.A., priority 2022, published 2025).

Common to all, as to assay: In vitro cytotoxicity on DLBCL cell lines panel (CellTiter Glo)
What all share (format): cell-based
(In general: In ATP-based viability assays light output follows the ATP content of the culture.)

One experiment has as its system Toledo cells. To be noted: Toledo cell line, 72 hours of incubation, relative IC50. The method, then: (§1) After 72 hours of incubation, plates were inspected under an inverted microscope to ensure growth of the controls and sterile conditions. Then, 50 μL CellTiter Glo (Promega, G7572) were added prior to luminescence reading as per the manufacturer's instructions. Relative IC50 were calculated using GraphPad Prism.

In another experiment the test system is WSU-NHL cells. As to conditions: WSU-NHL cell line, 72 hours of incubation, relative IC50. The method, then: as §1
Another experiment concerns U-2932 cells. As to conditions: U-2932 cell line, 72 hours of incubation, relative IC50. The method, then: as §1
In a further experiment the test system is OCI-LY3 cells. To be noted: OCI-LY3 cell line, 72 hours of incubation, relative IC50. The method, then: as §1
The next experiment concerns OCI-LY7 cells. To be noted: OCI-LY7 cell line, 72 hours of incubation, relative IC50. The method, then: as §1
The next experiment deals with A3/KAW cells. As to conditions: A3/KAW cell line, 72 hours of incubation, relative IC50. The method, then: as §1
Another experiment deals with Pfeiffer cells. To be noted: Pfeiffer cell line, 72 hours of incubation, relative IC50. The method, then: as §1
The subject of a further experiment is SU-DHL-5 cells. To be noted: SU-DHL-5 cell line, 72 hours of incubation, relative IC50. The method, then:
as §1

The next experiment concerns WSU-DLCL2 cells. To be noted: WSU-DLCL2 cell line, 72 hours of incubation, relative IC50. The method, then:
as §1

The test system of the next experiment is KARPAS-422 cells. To be noted: KARPAS-422 cell line, 72 hours of incubation, relative IC50. The method, then:
as §1

The subject of a further experiment is SU-DHL-2 cells. As to conditions: SU-DHL-2 cell line, 72 hours of incubation, relative IC50. The method, then:
as §1

A further experiment concerns SU-DHL-4 cells. As to conditions: SU-DHL-4 cell line, 72 hours of incubation, relative IC50. The method, then:
as §1

In another experiment the test system is DOHH-2 cells. To be noted: DOHH-2 cell line, 72 hours of incubation, relative IC50. The method, then:
as §1

Another experiment relates to SU-DHL-8 cells. To be noted: SU-DHL-8 cell line, 72 hours of incubation, relative IC50. The method, then:
as §1

For a further experiment, the system named is OCI-LY19 cells. To be noted: OCI-LY19 cell line, 72 hours of incubation, relative IC50. The method, then: as §1
The test system of the next experiment is HBL-1 cells. As to conditions: HBL-1 cell line, 72 hours of incubation, relative IC50. The method, then: as §1
In the next experiment the test system is SU-DHL-6 cells. As to conditions: SU-DHL-6 cell line, 72 hours of incubation, relative IC50. The method, then:
as §1

In general, IC50 refers to the point on the concentration scale where inhibition reaches its midpoint.

B1: Debio 1562: Comparative example: naratuximab reacted with crosslinking reagent SMCC and the maytansinoid DM1; DAR 3.5 (conjugate, chains of the INN, looked up)
VH: QVQVQESGPGLVAPSQTLSITCTVSGFSLTTSGVSWVRQPPGKGLEWLGVIWGDGSTNYHPSLKSRLSIKKDHSKSQVFLKLNSLTAADTATYYCAKGGYSLAHWGQGTLVTVSS
VL: DIQMTQSPSSLSVSVGERVTITCRASENIRSNLAWYQQKPGKSPKLLVNVATNLADGVPSRFSGSGSGTDYSLKINSLQPEDFGTYYCQHYWGTTWTFGQGTKLEIK
modifications: SMCC-DM1, DAR 3.5
B1: the IC50 was found to be 90 nM in the experiment with Toledo cells; 0.19 nM with WSU-NHL cells; 3.57 nM in the experiment on U-2932 cells; 0.352 nM in the experiment with OCI-LY3 cells; 79.3 nM in the experiment with OCI-LY7 cells; 33 nM in the experiment with A3/KAW cells. The concentration for half-maximal inhibition (IC50) with Pfeiffer cells worked out at 73.5 nM; with SU-DHL-5 cells it was 0.901 nM; in the experiment with WSU-DLCL2 cells it was 9.59 nM; in the experiment with KARPAS-422 cells, 20.5 nM; in the experiment with SU-DHL-2 cells it was 7.78 nM; in the experiment on SU-DHL-4 cells, 0.983 nM. Moreover, the 50% inhibitory concentration (IC50) with DOHH-2 cells was found to be 0.949 nM; in the experiment with SU-DHL-8 cells, 21.5 nM; in the experiment on OCI-LY19 cells, 45.5 nM; in the experiment on HBL-1 cells it was 0.217 nM; with SU-DHL-6 cells it was 1.74 nM.
